Results on one molecule are retold here after paper PMC9844859, “Appia: Simpler chromatography analysis and visualization” (PLOS ONE, 2023).

The target in this assay is T1, Human NEDD4-2-GFP (human, UniProt Q96PU5 1-975).
T1 construct: NEDD4-2 (E3 ubiquitin ligase NEDD4-like), human; also called NEDD4-2-GFP fusion protein; source: Sf9 cells (MOI of 5, 48 hours), purified (TALON resin, SEC)
T1 sequence (looked up): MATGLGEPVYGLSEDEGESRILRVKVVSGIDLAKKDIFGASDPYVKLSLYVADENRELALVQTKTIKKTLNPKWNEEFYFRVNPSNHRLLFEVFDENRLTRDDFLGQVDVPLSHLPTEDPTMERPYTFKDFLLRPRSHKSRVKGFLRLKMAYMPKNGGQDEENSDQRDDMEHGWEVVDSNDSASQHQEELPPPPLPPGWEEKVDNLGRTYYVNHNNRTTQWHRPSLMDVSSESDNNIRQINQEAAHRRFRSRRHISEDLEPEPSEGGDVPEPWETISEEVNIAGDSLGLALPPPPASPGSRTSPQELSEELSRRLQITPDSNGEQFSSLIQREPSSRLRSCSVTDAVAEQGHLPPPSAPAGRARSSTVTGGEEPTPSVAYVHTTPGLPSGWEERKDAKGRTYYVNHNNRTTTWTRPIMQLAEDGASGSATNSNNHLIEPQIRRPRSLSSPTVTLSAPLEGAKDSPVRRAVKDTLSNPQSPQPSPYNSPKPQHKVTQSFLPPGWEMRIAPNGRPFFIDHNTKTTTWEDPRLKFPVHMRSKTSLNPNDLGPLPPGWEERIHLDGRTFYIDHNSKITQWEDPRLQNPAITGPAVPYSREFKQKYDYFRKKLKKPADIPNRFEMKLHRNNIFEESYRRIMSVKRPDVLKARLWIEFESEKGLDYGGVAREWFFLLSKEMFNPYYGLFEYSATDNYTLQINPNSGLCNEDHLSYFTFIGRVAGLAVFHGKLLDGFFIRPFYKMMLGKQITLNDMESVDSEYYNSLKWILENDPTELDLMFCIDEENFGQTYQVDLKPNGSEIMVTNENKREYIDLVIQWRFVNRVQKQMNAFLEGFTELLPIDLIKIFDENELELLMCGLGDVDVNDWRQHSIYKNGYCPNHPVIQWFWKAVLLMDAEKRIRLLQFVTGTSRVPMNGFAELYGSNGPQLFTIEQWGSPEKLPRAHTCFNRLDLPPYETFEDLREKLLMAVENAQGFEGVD
Put plainly: SEC; fluorescence-detection SEC (FSEC), GFP channel; NEDD4-2-GFP held at 71.2 nM, ENaC αβγ added in equal amounts, five-fold or ten-fold excess; Superose 6 Increase 10/300; TBS (20 mM Tris pH 7.5, 200 mM NaCl) + 0.5 mM DDM. To be noted: both partners purified. (In general: Size exclusion chromatography separates by hydrodynamic size, large species first.)

B1: triheteromeric αβγ Epithelial Sodium Channel (ENaC αβγ) (complex)
chain 1: MEGNKLEEQDSSPPQSTPGLMKGNKREEQGLGPEPAAPQQPTAEEEALIEFHRSYRELFEFFCNNTTIHGAIRLVCSQHNRMKTAFWAVLWLCTFGMMYWQFGLLFGEYFSYPVSLNINLNSDKLVFPAVTICTLNPYRYPEIKEELEELDRITEQTLFDLYKYSSFTTLVAGSRSRRDLRGTLPHPLQRLRVPPPPHGARRARSVASSLRDNNPQVDWKDWKIGFQLCNQNKSDCFYQTYSSGVDAVREWYRFHYINILSRLPETLPSLEEDTLGNFIFACRFNQVSCNQANYSHFHHPMYGNCYTFNDKNNSNLWMSSMPGINNGLSLMLRAEQNDFIPLLSTVTGARVMVHGQDEPAFMDDGGFNLRPGVETSISMRKETLDRLGGDYGDCTKNGSDVPVENLYPSKYTQQVCIHSCFQESMIKECGCAYIFYPRPQNVEYCDYRKHSSWGYCYYKLQVDFSSDHLGCFTKCRKPCSVTSYQLSAGYSRWPSVTSQEWVFQMLSRQNNYTVNNKRNGVAKVNIFFKELNYKTNSESPSVTMVTLLSNLGSQWSLWFGSSVLSVVEMAELVFDLLVIMFLMLLRRFRSRYWSPGRGGRGAQEVASTLASSPPSHFCPHPMSLSLSQPGPAPSPALTAPPPAYATLGPRPSPGGSAGASSSTCPLGGP
chain 2: MHVKKYLLKGLHRLQKGPGYTYKELLVWYCDNTNTHGPKRIICEGPKKKAMWFLLTLLFAALVCWQWGIFIRTYLSWEVSVSLSVGFKTMDFPAVTICNASPFKYSKIKHLLKDLDELMEAVLERILAPELSHANATRNLNFSIWNHTPLVLIDERNPHHPMVLDLFGDNHNGLTSSSASEKICNAHGCKMAMRLCSLNRTQCTFRNFTSATQALTEWYILQATNIFAQVPQQELVEMSYPGEQMILACLFGAEPCNYRNFTSIFYPHYGNCYIFNWGMTEKALPSANPGTEFGLKLILDIGQEDYVPFLASTAGVRLMLHEQRSYPFIRDEGIYAMSGTETSIGVLVDKLQRMGEPYSPCTVNGSEVPVQNFYSDYNTTYSIQACLRSCFQDHMIRNCNCGHYLYPLPRGEKYCNNRDFPDWAHCYSDLQMSVAQRETCIGMCKESCNDTQYKMTISMADWPSEASEDWIFHVLSQERDQSTNITLSRKGIVKLNIYFQEFNYRTIEESAANNIVWLLSNLGGQFGFWMGGSVLCLIEFGEIIIDFVWITIIKLVALAKSLRQRRAQASYAGPPPTVAELVEAHTNFGFQPDTAPRSPNTGPYPSEQALPIPGTPPPNYDSLRLQPLDVIESDSEGDAI
chain 3: MAPGEKIKAKIKKNLPVTGPQAPTIKELMRWYCLNTNTHGCRRIVVSRGRLRRLLWIGFTLTAVALILWQCALLVFSFYTVSVSIKVHFRKLDFPAVTICNINPYKYSTVRHLLADLEQETREALKSLYGFPESRKRREAESWNSVSEGKQPRFSHRIPLLIFDQDEKGKARDFFTGRKRKVGGSIIHKASNVMHIESKQVVGFQLCSNDTSDCATYTFSSGINAIQEWYKLHYMNIMAQVPLEKKINMSYSAEELLVTCFFDGVSCDARNFTLFHHPMHGNCYTFNNRENETILSTSMGGSEYGLQVILYINEEEYNPFLVSSTGAKVIIHRQDEYPFVEDVGTEIETAMVTSIGMHLTESFKLSEPYSQCTEDGSDVPIRNIYNAAYSLQICLHSCFQTKMVEKCGCAQYSQPLPPAANYCNYQQHPNWMYCYYQLHRAFVQEELGCQSVCKEACSFKEWTLTTSLAQWPSVVSEKWLLPVLTWDQGRQVNKKLNKTDLAKLLIFYKDLNQRSIMESPANSIEMLLSNFGGQLGLWMSCSVVCVIEIIEVFFIDFFSIIARRQWQKAKEWWAWKQAPPCPEAPRSPQGQDNPALDIDDDLPTFNSALHLPPALGTQVPGTPPPKYNTLRLERAFSNQLTDTQMLDEL
notes: ENaC alpha subunit; ENaC beta subunit; ENaC gamma subunit; The trypsin treatment may also cut the subunits themselves; also called αβγ ENaC; source: HEK293S GnTI- cells, baculovirus, purified (GFP nanobody resin, eluted with trypsin, SEC) as described for ENaC δβγ; copies: + +
As to B1, the “percent of total NEDD4-2 bound at a 1:5 NEDD4-2:ENaC αβγ ratio” value is ~20%.
